# Experiment: yeast display, Sf9 membrane polyspecificity reagent, FACS + sequencing; frameworks hold sequencing errors
# Procedure, shortened: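 Synthetic nanobody libraries on Saccharomyces cerevisiae BJ5465 were galactose-induced for 36–48 hours, stained 1 hour at 4 °C with 10% biotinylated, detergent-solubilized Sf9 membrane reagent and enriched on streptavidin microbeads. FACS then separated cells into low and high (top ~1%) gates by anti-HA (expression) and streptavidin (reagent binding) fluorescence. Genes were colony-PCR amplified, MiSeq 2 × 250 sequenced and CDR-length filtered. A clone's polyreactivity label is that of its gate of origin.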
row,Sequence,polyreactivity (PSR sort gate)
1,QVQLVESGGGLVQAGGSLRLSCAASGSIFLLYAMGWYRQAPGKERELVAAIRWSGARTYYADSVKGRFTISRDKAKNTVYLQMNSLKPDDTAVYYCAADYVVDDIYWWEGDYWGQGTQVTVSS,high polyreactivity
2,QVQLVESGGGLVQAGGSLRLSCAASGIIFVRNARGWSRQAPGKERELVAAITGRGVSTYYADSVKGRFTISRDNAKNTVYLQMNSLNQEDTAVYYGAARYSSRGTYPRRYDYWGQGTQVTVSS,high polyreactivity
3,QVQLVESGGGLVQSGGSLRLSCAASGYIFGYYAMGWYRQAPGKERELVAAITGTDDTNYADSVKGRFTISRDNAKNTVYLQMNSLIPEDTAVYYCAAYSWWNEYDYWGQGTQVTVSS,high polyreactivity
4,QVQLVESGGGLVQAGGSLRLSCAASGLTIWRHAMGWYRQAPGKEREFVATISQNGGRTYYADSVKGRFTISRDNAKNTVYLQMNSLKPEDTAVYYCAADDWRWRYDYWGQGTQVTVSS,high polyreactivity
5,QVQLVESGGGVVQAGGSLRLSCAASRRTFTYYDMGWYRQAPGKERELVAGITARGGSTYADSVKGRFTISRDNAKNTVYLQMNSLKPEDTAVYYCAADLYTSLDSTYVYWGQGTQVTLSS,low polyreactivity
6,QVQLVESGGGLDQAGGSLRLSCAASGSIFTQYAMGWYRQAPGKERELVAAITSGGSTYADSVKGRFTISRDNAKNTVYLQMNSLKPEDTAVYYCATPYSYRGVTFNYWGQGTLVTVSS,low polyreactivity
7,QVQLVESGGGLVQAGGSLRLSCAASGSTFRYNAMGWYRQAPGKERELVASINRGGGGTYYADSVKGRFTISRDNAKKTVYLQMNSLKPEDTAVYYCAKARFTRGTWFYYWGQGTQVTVSS,high polyreactivity
8,LVQLVESGGGLVQAVGSLRLSCAASGFTIYGNAMGWYRRAPGKERELVAAITWRGGSTYYADSEKGRFTISRDNAKNTVYLQMNSLKPEDTAVYYCNALKGRPVRSYLASPSYRYDYWGQGTQVTVSS,high polyreactivity
9,QVQLVESGGGLVQAGGSLRLSCAASGRTIAAYAMGWYRQAPGKERELVAAISRSGGSTYYADSVKGRFTISRDNAKNTVYLQMNSLKPEDTAVYYCAAYYIVSSLFGYWGQGTQVTVSS,high polyreactivity
10,QVHLVESGGGLVQAGGSLRLSCAASGRTFIIYAMGWYRPAPGKERELVADISSGGSTYYADSVKGRFTISRDNAKNTVYLQMNIVKPEDTAVYYCAAQSWYFPIGYDYWGQGTQVTVSS,low polyreactivity
11,QVQLVESGGGLVQAGGSLRLSCAASGRTFNGNTMGWYRQAPGKERELVAAISRRGGSTYYADSVKGRFTISRDTAKNTVYLQMNSLKPEVTAVYYCATHSTFGYDYWGQGTQVTVSS,high polyreactivity
12,QVQLVESGGGLVQAGGSLRLSCAAYGYTFRYNAMGWYRQAPGKERELVATITRGGSTNYADSVKGRFTISRDNAKNTVYLQMNSLKPEDTAVYYCNKEAAPRGFVPSYYGRDYWGQGTQVTVSS,low polyreactivity
13,QVQLVESGGGLVQAGGSLRLSCAASGSTFGANAMGWYRQAPGKEREFVAAISRSGVRTYYADSVKGRFTISRDNAKNTVYVQMNSLKPEDSAVYYCAADGYWLTYTRYDYWGQGTQVTVSS,low polyreactivity
14,QVQLVESGAGLVQAGGSLRLSCAASGSTLVYNDMGWYRQAPGKDREFVAAIRSNDGSTYYADSVKGRFTISRDNAKNTVYLQMNSLKPEDTAVYYCAKDSRNVYWDYGYWGQGTQVTVSS,low polyreactivity
15,QVQLVESGGGLVQAGGSLRLSCAASGFIIIGYFMGWYRQAPGKERELVAAITSSGGSTYYADSVKGRFTISRDNAKNTVYLQMNSLKPEDTAVYYCAARLYNSIYWGYYSWGPGTQVTVSS,low polyreactivity
16,QVQLVESGGGLVQAGGSLRLSCAASGRIQYNAMGWYSQAPGKEREFGAAISWSGGTTYYADSVKGRFTISRDTAKNTVYLQMNSLKPEDTAVYYCATPYTHWGQGTQVTVSS,high polyreactivity
17,QVQLVESGGGLVQAGGSLRLSCDASGNTFVRYAMGWFRQAPGKERELVAGISASGGSTSYADSVKGRFTISRDNAKNTVYLQMNSLKPEDTAVYYCARNYWLYSSSYDSWGQGTQVTVSS,high polyreactivity
18,QVQLVESGGGLVQAGGSLRLSCAASGLTFLYYAMGWYRQAPGKERELVAAISSRGGSTYYADSVKGRFKISRDNAKNTVYLQMNSLKPEDTAVYYCNAVRGDEYWGQGTQVTVSS,high polyreactivity
19,QVQLVESGGGLVQAGGSLRLSCAASGRIFVRYAMGWYRQAPGKERELVAAISKSGGSTYYADSVKGRFTISRDNAKNTVYLQMNSLKPEDTAVYYCNALVRRRPGYIRYDYWGQGTQVTVSS,low polyreactivity
20,QVQLVESGGGLVQAGGSLRLTCAASGSTFVWYAMGWSRQAPGKEREFVATISWSDGSTYYADSVKGRFTISRDNAKNTVYLQMNSLKPEDTAVYYCASDVDRFFTYKYDYWGQGTQVTVSS,low polyreactivity
21,QVQLVESGGGLVQAGGSLRLSCAASGRTFYRYAMGWYRQAPGKERELVAVISTDGSSTYYADSVKGRFTISRDNAKNTVYLLMNSLKPEDTAVYYCAARSLAWLFGRNYWGQGTQVTVSS,high polyreactivity
22,QDQLVESGGGLVHAGGSLRLSCAASGRTFFVYAMGWYRHAPGKEREMVANINQGGGSTSYADSVKGRFTISRDNAKNNVYLQMNSLKPEDTAVYYCNADHYGIGYDPVPLGFVGYDYWGQGTQVTVSS,low polyreactivity

row,Sequence,polyreactivity (PSR sort gate)
1,QVQLQESAGGLVQAGGSLRLRCSASGYISCDASMGWYRQAPGKERELAASITQGSSTNYADSVKGRFTIRDNAKNTVYLQMNSLKPEDTAVCYCAVTYPYWGDYTYWGQGTQVTVSS,low polyreactivity
2,QVQLEESGGGLVQAGGSLRLSCAASGITFDFNAKGWYRQAPGTERELVAAIRNRGGSTYYADSVKGRFTISRDNAKNTVYLQMHSLKPVDTAVYYCNVDLWPFVYSWWSYDYWGQGTQVTVSS,high polyreactivity
3,QVQLVESGGGLVQAGGSLRLSCAASGRIIKRYAMGWYRQAPGKERELVAAISASGSSTYYADSVKGRFTISRDNAKNTVYLQMNSLKPEDTAVYYCAAWAYSPSASYDYWGQGTQVTVSS,high polyreactivity
4,QVQLVESGGGLVQAGGSLRLSCAASGRIFGAYAMGWYRPAPGKERELVAAITGGDSTYYADSVKGRFTISRDNAKNTVYLQMNSLKPEDTAVYYCAADLTPEGVLQLGKYINYDSWGQGTQVTVSS,low polyreactivity
5,QVQLVESGGGLVQAGGSLRLSCAASGSTIVYYAMGWYRQAPGKERELVAAITSDGSTDYADSVKGRFTISRDNAKNTVYLQMNSLKPEDTAVYYCAVVTFYFCTDYYDVDYWGQGTQVTVSS,low polyreactivity
6,QVQLVESGGGLVQAGCSLRLSCAASGITFNFYAMGWYRQAPGKERELVAAITSSGASTNYADSVKGRFTISRDNAKNTVYLQMNSLYPEDTAVYYCNAQRSRHSLYPVNELYYWGQGTQVTVTS,low polyreactivity
7,QVQLVESGGGLVQAGGSLRLSCAASGSLFNYYAMAWSRTAPGKERELVAGITTSGGSTYYAESVKGRFRISRDNAKNTVYLQMNSLKPEDTAVYYCAAYDYISSTYFLDDYWGQGTQVTVSS,low polyreactivity
8,QVQLVESGGGLVQAGVSLRLSCAASGSIFVYNAMGWYRQAPGKERELVAAISSSGTRTYYADSVKARFTISRDNAKNTVYLQMNSLKPEDTAVYYCAAYYVPWGTLYHLDYWGQGTQVTVSS,high polyreactivity
9,QVQLVESGGGLVQAGGSLRLSCAASGRTFQRNAMGWYRQAPGKERELVAAISWRGGSTYYADSVKGRFTISRDNAKNTVYLQMNSLKPEDTAVYYCNTYPSQYLWYDYWGQGTQVTVSS,high polyreactivity
10,QDQLVESGGGLVQAGGSLRLSCAPSGYFDLNALGWYRQAPGKERELVAANTDGGSTNYADSVKGRFTISRDNAKNTFYLQMNSLKPEDTAVYYCAADRGHTILHGGYWGQGTQVTVSS,low polyreactivity
11,QVQLVESGGGLVQAGGSLRLSCAASGSTFRQYAMGWYRQAPGKERELVAAISSGGRTNYADSVKGRFTISRDNAKNTVYLQMNSLKPEDTAVYYCAADIRRRVPVRGYYYWGQGTQVTVSS,high polyreactivity
12,QVQLVESGGGLVQAGGSLRLSCAASGSTVSPNAMGWDRPAPGKERELVAAITYRGANTYYADSVKGRFTISRDNAKNTVYLQMNSLKPEDTAVYYCAATYGSWISLRFYWGQGTQVTVSS,low polyreactivity
13,QVQLVESGGGLVQAGGSLRLSCAASGFTFRVYAMGWYRQAPGKERELVAAITKRGGSTYYADSVRGRFTISRDNAKNTVYLQMNSLKPEDTAVYYCATENTPHYASHGYWGQGTQVTVSS,high polyreactivity
14,QVQLVESGGGLVQAGGSLRLSCAASGRIFGGYAMGWYRPAPGKERELVAAISGGGSTNYADSVKGRFTISRDNAKNTVYLQMNSLKPEDTAVYYCAAQYWSRRFYWYGYWGQGTQVTVSS,high polyreactivity
15,QVQLEESGGGLVQAGGSLRLICAASGGTFSYNAMGWYRQAPGKERELVAAISWSGTRTYYADSVKGRFTISRDNEKNTVYLQMNSLKPEDTAVYYCNADSDTPRYDYWGLGTQVTVSS,low polyreactivity
16,QVQLVESGGGLVQAGGSLRLSCAASGRIFYYNAMGWYRQAPGKERELVAAISTRGTSTYYADSVKGRFTISRDNAKNTVYLQMNSLKPEDTAVYYCNRASGNWQSYLRYDYWGQGTQVTVSS,low polyreactivity
17,QVQLEESGGGLVQAGGSLRLSCAASGSIFSGYTMGWYRQAPGKERELVAGISYRGGSTYYADSVKGRFTISRDNAKNTVYLQMNSLKPEDTAVYYCAARVWWRYEYWGQGTQVTVSS,high polyreactivity
18,QVQLVESGGGLVQAGGSLRLSCAASGRIFYPYAMGWYRQAPGKERELVAAIDWTAGGTYYADSVKGRFTISRDNAKNTVYLQMNSLKPEDTAVYYCAAEYYIEANGDYWGLGTQVTVSS,low polyreactivity
19,QVQLVESGGGLVQAGGSLRLSCASSGRTFRYNAKGWYRQAPGKERELVAAISWSGGGTYYSDSVKGRFTISRDNAKNTVYLQMNSLKPEDTAVYYCAAEEQIPLTNNSKYYYWGQGTQVTVSS,low polyreactivity
20,QVQLVESGGGIVQAGGSLRLSCADSGFISVTYAMGWYRPAPGKERELDAAITYSGGSTYYADSVKGRYTISRDNAKNTVYLQMNSLKPEDTAVYYCAKKRRVVVLSVQGDYWGQGTQVTVSS,low polyreactivity
21,QVQLVESGGGLVQAGGSLRLSCDASGRIFYNYAMGWYRQEPGKERELVAAISSSGGRTYYADSVKGRFTISRDKAKNTVYLQMNSLKPEDTAVYYCAADFHDASRPYGSWGQGTQVTVSS,low polyreactivity
